Where a chain is given by its changes, count along the chain named. Values belong to the molecule of their own block, whether it stands above or below them.
Experiments:
[1] = biological target: cyno CD3 epsilon (cyno (cynomolgus monkey)) (UniProt Q95LI5); test: sensorgrams with fits, Response (RLU) against Time (s); instrument not named; species not printed on the panel: cyno by the order of the panels (11I-11K human, 11L-11N cyno, after the text's 67 nM and 107 nM)
[2] = biological target: T1, human CD3 epsilon (human, UniProt P07766 23-126, limits assumed); test: sensorgrams with fits, Response (RLU) against Time (s); instrument not named; species not printed on the panel: human by the order of the panels (11I-11K human, 11L-11N cyno, after the text's 67 nM and 107 nM)
T1 construct: Used as a soluble protein target in panning; the construct is not described; also called hCD3; hCD3 epsilon
T1 sequence (P07766 23-126 limits assumed): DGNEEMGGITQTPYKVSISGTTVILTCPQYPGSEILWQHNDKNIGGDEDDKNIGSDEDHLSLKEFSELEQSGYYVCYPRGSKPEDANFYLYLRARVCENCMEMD

[3] = biological target: CD3 on human CD8+ T cells; test: flow cytometry titration, RL1-H MFI against [IgG] nM; cells not named on this panel, the points are those of the CD8+ T-Cell curves of FIGS. 12E-12G
Chain of CD3 on human CD8+ T cells (chain, as listed by the source limits assumed): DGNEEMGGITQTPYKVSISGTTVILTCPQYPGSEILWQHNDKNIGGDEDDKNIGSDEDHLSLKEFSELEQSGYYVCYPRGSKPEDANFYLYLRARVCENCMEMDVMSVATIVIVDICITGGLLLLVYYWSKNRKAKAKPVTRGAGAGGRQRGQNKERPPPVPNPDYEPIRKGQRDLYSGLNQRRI

[4] = biological target: CD3 on human CD8+ T cells; test: flow cytometry titration on CD8+ T cells, MFI against [IgG] nM
[5] = biological target: CD3 on Jurkat cells; test: flow cytometry titration on Jurkat cells, MFI against [IgG] nM
[6] = biological target: CD3 on human CD8+ T cells; test: flow cytometry titration, MFI against [IgG] nM; cells not named on this panel, the value and the curve are those of the CD8+ T-Cell curve of FIG. 12F
[7] = biological target: T1, human CD3 epsilon; test: flow cytometry on Expi293 cells overexpressing hCD3e, antibody at 100 nM; bar = MFI ratio (OE/parent), 1 = parent cells
[8] = biological target: T2, cyno CD3 epsilon (cyno (cynomolgus monkey), UniProt Q95LI5 22-117, limits assumed); test: flow cytometry on Expi293 cells overexpressing cynoCD3e, antibody at 100 nM; bar = MFI ratio (OE/parent)
T2 construct: Used as a soluble protein target in panning; the construct is not described; also called cCD3; cCD3 epsilon
T2 sequence (looked up): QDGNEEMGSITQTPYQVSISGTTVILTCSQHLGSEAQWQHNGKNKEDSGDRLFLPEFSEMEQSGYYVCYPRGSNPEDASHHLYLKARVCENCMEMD

[9] = biological target: T2, cyno CD3 epsilon; test: sensorgrams with fits, Response (RLU) against Time (s); instrument not named; panel shaded grey; species not printed on the panel: cyno by the order of the panels (11I-11K human, 11L-11N cyno, after the text's 67 nM and 107 nM)
[10] = biological target: T1, human CD3 epsilon; test: method not stated; human CD3 epsilon

Kd [1]: 38 nM | Kd [2]: < 0.0019 nM
Molecule: muSP34 (antibody)

EC50 (read off the curve) [3]: 3 nM | EC50 [4]: 3.05 nM | EC50 [5]: 0.537 nM | EC50 [6]: 3.05 nM
Molecule: R&D MAB100 (antibody)

binding result [7]: binds | binding result [8]: no binding (tested: 100 nM)
B1: CD3-252-29 (VHH)
VHH: EVQLVESGGGLVQPGGSLRLSCAASGTTFRINVMGWFRQAPGKEREFVAAITSSGSSTLYADSVKGRFTISADNSKNTAYLQMNSLKPEDTAVYYCARGGGYHRLWGQGTLVTVSS
notes: also called CD3-252-029

binding result [7]: binds | binding result [8]: no binding (tested: 100 nM)
B2: CD3-252-10 (VHH)
VHH: EVQLVESGGGLVQPGGSLRLSCAASGRSLYDRAYVMGWFRQAPGKEREFVAAINRSGSALYADSVKGRFTISADNSKNTAYLQMNSLKPEDTAVYYCAAKAVTSRDHEWGQGTLVTVSS
notes: also called CD3-252-010

binding result [7]: binds | binding result [8]: no binding (tested: 100 nM)
B3: CD3-252-5 (VHH)
VHH: EVQLVESGGGLVQPGGSLRLSCAASGRISNINIMGWFRQAPGKEREFVAAISWNSGTTRYADSVKGRFTISADNSKNTAYLQMNSLKPEDTAVYYCASQGPGLYGSGSYLRYWGQGTLVTVSS
notes: also called CD3-252-005

binding result [7]: binds | binding result [8]: no binding (tested: 100 nM)
B4: CD3-252-24 (VHH)
VHH: EVQLVESGGGLVQPGGSLRLSCAASGITFKRYVMGWFRQAPGKEREFVAAITNGGSTKYADSVKGRFTISADNSKNTAYLQMNSLKPEDTAVYYCARDLSAGPGKAVYWGQGTLVTVSS
notes: also called CD3-252-024

binding result [7]: binds
B5: CD3-252-22 (VHH)
VHH: EVQLVESGGGLVQPGGSLRLSCAASGNIFTRHIMGWFRQAPGKEREFVAAITNGGSTKYADSVKGRFTISADNSKNTAYLQMNSLKPEDTAVYYCARQDYYDSSGHIRYWGQGTLVTVSS
notes: also called CD3-252-022

Kd [9]: 162000 nM | Kd [2]: 130 nM
B6: CD3-56-11 (antibody, V domains shown)
VH: EVQLLESGGGLVQPGGSLRLSCAASGFRFSTYAMNWVRQAPGKGLEWVSGISGSGGSKYHADSVKGRFTISRDNSKNTLYLQMNSLRAEDTAVYYCARDSLTTRGYYYYMDVWGQGTLVTVSS
VL: DIQMTQSQSSLSASVGDRVTITCRASQSIRTSLNWYQQKPGKAPKLLIYAASRLQSGVPSRFSGSGSGTDFTLTISSLQPEDFATYYCQQSYSTLYSFGGGTKVEIK

Kd [10]: 67 nM
B7: CD3-56-05 (antibody, V domains shown)
VH: EVQLLESGGGLVQPGGSLRLSCAASGFTFSSYAMNWVRQAPGKGLEWVSAVSGSGGRTYYADSVKGRFTISRDNSKNTLYLQMNSLRAEDTAVYYCARERATTLDYWGQGTLVTVSS
VL: B6 VL with Q8P, S28T, R30Y, T31S, S32H, A50V, Y92F, L95S, Y96W, S97T
notes: the text speaks of CD3 epsilon IgGs from a Fab library on the DP47 framework; also called CD3-56-5; CD-3-56-5

From US20220348659A1 (TWIST BIOSCIENCE, published 2022)
